From paper PMC11514452, “Stochastic nature and physiological implications of 5′-NAD RNA cap in bacteria” (Nucleic Acids Research, 2024)
Each block holds one compound with its values, some of them ahead of it.

Legend:
70S ribosome [1] = experiment: BLI; settings: tRNAfMet (2-fold molar excess), 10 mM Tris-HCl pH 7.4, 60 mM NH4Cl, RelE assay also 6 mM beta-mercaptoethanol, 37 C 10 min, BLI temperature not stated
70S ribosome [2] = experiment: footprinting (RelE printing, ribosome titration); settings: tRNAfMet, RelE toxin, 10 mM Tris-HCl pH 7.4, 60 mM NH4Cl, RelE assay also 6 mM beta-mercaptoethanol, 37 C 10 min, BLI temperature not stated
NudC = target: T1, NudC (Escherichia coli, UniProt P32664); experiment: NAD-RNA de-capping in vitro, gel read-out, ppGpp titration; type: biochemical; settings: read-out: inhibition constant
T1 construct: homodimer by known biology
T1 sequence (P32664 1-257): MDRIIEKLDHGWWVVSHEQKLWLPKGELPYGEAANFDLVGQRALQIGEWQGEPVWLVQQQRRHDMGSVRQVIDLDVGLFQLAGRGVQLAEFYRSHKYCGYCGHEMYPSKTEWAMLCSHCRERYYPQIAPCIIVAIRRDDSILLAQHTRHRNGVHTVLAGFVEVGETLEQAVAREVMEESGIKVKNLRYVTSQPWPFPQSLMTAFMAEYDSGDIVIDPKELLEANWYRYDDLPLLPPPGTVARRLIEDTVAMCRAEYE

[3] = 10 mM Mg(OAc)2, 5'-NAD (first A replaced by NAD, start codon NAD-UG)
[4] = 10 mM Mg(OAc)2, 5'-triphosphate

Compound: AUGAGCACAAAAAAGAAACCAUUAACACAAGAGCAGCUUGAGGACGCACGUCGCCUUAAAGCAAUUUAUG [NAD-cI(1-70) leaderless mRNA]
Kd (70S ribosome [1]; [3]): 4.3 nM | K half (70S ribosome [2]; [3]): 4.3 nM

Compound: AUGAGCACAAAAAAGAAACCAUUAACACAAGAGCAGCUUGAGGACGCACGUCGCCUUAAAGCAAUUUAUG [ppp-cI(1-70) leaderless mRNA]
Kd (70S ribosome [1]; [4]): 3.5 nM | K half (70S ribosome [2]; [4]): 3.8 nM

Ki (NudC): ~70000 nM
Compound: Nc1nc2c(ncn2[C@@H]2O[C@H](COP(=O)(O)OP(=O)(O)O)[C@@H](OP(=O)(O)OP(=O)(O)O)[C@H]2O)c(=O)[nH]1 [ppGpp]
